This assay has as its target p75 NeuroTrophin Receptor (UniProt P08138). Put plainly: SPR; TrkA immobilized at 8860 RU, p75NTR immobilized at 4320 RU; 1.7-15 nM hNGF R100W flowed over; curves blank subtracted. For orientation: Surface plasmon resonance follows binding to a sensor surface in real time, without labels.
UniProt P08138, sequence (P08138 29-427): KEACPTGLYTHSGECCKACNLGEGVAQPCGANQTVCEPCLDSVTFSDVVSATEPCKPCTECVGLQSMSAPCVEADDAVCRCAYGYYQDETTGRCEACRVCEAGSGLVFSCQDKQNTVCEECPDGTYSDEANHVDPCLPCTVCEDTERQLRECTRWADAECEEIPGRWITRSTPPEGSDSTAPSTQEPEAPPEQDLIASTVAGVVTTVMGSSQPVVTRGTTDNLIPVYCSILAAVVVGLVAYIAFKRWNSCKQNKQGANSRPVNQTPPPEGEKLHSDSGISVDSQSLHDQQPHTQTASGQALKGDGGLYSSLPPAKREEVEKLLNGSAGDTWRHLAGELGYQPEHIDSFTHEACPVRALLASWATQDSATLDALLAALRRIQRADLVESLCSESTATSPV

Usually Kd stands for the concentration at which binding is half-saturated. In the case of “human NGF R100W (from UniProt P01138 122-241) (ligand)”, the Kd is 0.1 µM.

For the origin of these results see article PMC10045213.
